The supplement of paper PMC7125110
± gives the standard error. This sample holds only a part of the variants without activity.

B1: glmS ribozyme (parent)
chain: AUAAAAGCGCCAGAACUACAGAAAUGUAGUUGACGAGGAGGAGGUUUAUCGAAUUUUCGGCGGAUGCCUCCAAA

How the values were obtained:
Conditions in all cases: with glucosamine-6-phosphate
glucosamine-6-phosphate [1] = variants of: B1; test: self-cleavage kobs at 40 uM GlcN6P; higher = faster cleavage; RNA array
Summary of the method: (§1)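 Barcoded ribozyme variants, transcribed in situ by E. coli RNA polymerase on sequenced MiSeq chips, were followed via a hybridised Cy3 probe at 37 °C. Glucosamine-6-phosphate ranged from 40 μM to 10 mM in HEPES/KCl/Mg(OAc)2 buffer. kobs came from decay fits to per-tile medians, and kcat and KM from weighted Michaelis–Menten fits.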

glucosamine-6-phosphate [2] = variants of: B1; test: self-cleavage kobs at 160 uM GlcN6P; higher = faster cleavage; RNA array
Summary of the method: as §1

glucosamine-6-phosphate [3] = variants of: B1; test: self-cleavage kobs at 640 uM GlcN6P; higher = faster cleavage; RNA array
Summary of the method: as §1

glucosamine-6-phosphate [4] = variants of: B1; test: self-cleavage kobs at 10000 uM GlcN6P; higher = faster cleavage; RNA array
Summary of the method: as §1

glucosamine-6-phosphate [5] = variants of: B1; test: self-cleavage kobs at 2500 uM GlcN6P; higher = faster cleavage; RNA array
Summary of the method: as §1

Variant | self-cleavage kobs at 40 uM GlcN6P (glucosamine-6-phosphate [1]) | self-cleavage kobs at 160 uM GlcN6P (glucosamine-6-phosphate [2]) | self-cleavage kobs at 640 uM GlcN6P (glucosamine-6-phosphate [3]) | self-cleavage kobs at 10000 uM GlcN6P (glucosamine-6-phosphate [4]) | self-cleavage kobs at 2500 uM GlcN6P (glucosamine-6-phosphate [5])
C8U A33C C71A | < 1e-05 s⁻¹ | – | – | – | –
G9U G13C | < 1e-05 s⁻¹ | < 1e-05 s⁻¹ | < 1e-05 s⁻¹ | < 1e-05 s⁻¹ | –
G9U A15U G41A U55A G60A | < 1e-05 s⁻¹ | – | – | < 1e-05 s⁻¹ | –
G9A U46G G62A | < 1e-05 s⁻¹ | – | – | – | < 1e-05 s⁻¹
G9C U57C C71A | < 1e-05 s⁻¹ | – | – | < 1e-05 s⁻¹ | –
G9U A39U C68U | < 1e-05 s⁻¹ | – | – | – | –
C8G G13U U30C G43U | < 1e-05 s⁻¹ | – | – | – | –
C8U C50U C58G C61U C67U C68G | 0.000528 ± 0.0001 s⁻¹ | – | – | 0.00105 ± 0.00018 s⁻¹ | –
G9A A14C G41U U55C | < 1e-05 s⁻¹ | – | – | – | –
C8U G29A | < 1e-05 s⁻¹ | – | – | – | < 1e-05 s⁻¹
C8U G29C | < 1e-05 s⁻¹ | < 1e-05 s⁻¹ | < 1e-05 s⁻¹ | < 1e-05 s⁻¹ | < 1e-05 s⁻¹
C8U G44C A53U G63U C68G | < 1e-05 s⁻¹ | – | – | < 1e-05 s⁻¹ | –
G9A A15U G63U | < 1e-05 s⁻¹ | – | – | – | –
C8U G59U | < 1e-05 s⁻¹ | < 1e-05 s⁻¹ | < 1e-05 s⁻¹ | < 1e-05 s⁻¹ | < 1e-05 s⁻¹
G9A A52U | < 1e-05 s⁻¹ | < 1e-05 s⁻¹ | < 1e-05 s⁻¹ | < 1e-05 s⁻¹ | < 1e-05 s⁻¹
C8U G62A | < 1e-05 s⁻¹ | < 1e-05 s⁻¹ | – | 7.26e-05 ± 1.2e-05 s⁻¹ | –
G9A U56G | < 1e-05 s⁻¹ | < 1e-05 s⁻¹ | – | – | –
C8G G29U A33C C68A | < 1e-05 s⁻¹ | – | < 1e-05 s⁻¹ | < 1e-05 s⁻¹ | –
G9A G63A | < 1e-05 s⁻¹ | – | < 1e-05 s⁻¹ | < 1e-05 s⁻¹ | < 1e-05 s⁻¹
G9U U45G C50G | < 1e-05 s⁻¹ | < 1e-05 s⁻¹ | < 1e-05 s⁻¹ | < 1e-05 s⁻¹ | –
G9U A14G G59C C68U | < 1e-05 s⁻¹ | – | – | < 1e-05 s⁻¹ | –
C10A C61A C67G | 4.33e-05 ± 1.9e-05 s⁻¹ | – | – | – | –
G9C A53C | < 1e-05 s⁻¹ | < 1e-05 s⁻¹ | < 1e-05 s⁻¹ | < 1e-05 s⁻¹ | –
G9C A53U | < 1e-05 s⁻¹ | < 1e-05 s⁻¹ | < 1e-05 s⁻¹ | < 1e-05 s⁻¹ | < 1e-05 s⁻¹
C8U U65C | < 1e-05 s⁻¹ | – | < 1e-05 s⁻¹ | – | < 1e-05 s⁻¹

Variant | self-cleavage kobs at 40 uM GlcN6P (glucosamine-6-phosphate [1]) | self-cleavage kobs at 160 uM GlcN6P (glucosamine-6-phosphate [2]) | self-cleavage kobs at 640 uM GlcN6P (glucosamine-6-phosphate [3]) | self-cleavage kobs at 10000 uM GlcN6P (glucosamine-6-phosphate [4]) | self-cleavage kobs at 2500 uM GlcN6P (glucosamine-6-phosphate [5])
C8U G63U | < 1e-05 s⁻¹ | < 1e-05 s⁻¹ | < 1e-05 s⁻¹ | – | –
C8U A12C G40A U45G G60A G66U | < 1e-05 s⁻¹ | – | – | – | –
C8G U45C | < 1e-05 s⁻¹ | < 1e-05 s⁻¹ | < 1e-05 s⁻¹ | < 1e-05 s⁻¹ | < 1e-05 s⁻¹
C8U C11U A12C A48G G62A C67U | < 1e-05 s⁻¹ | – | – | < 1e-05 s⁻¹ | < 1e-05 s⁻¹
C8G U47A A48C C70G | < 1e-05 s⁻¹ | < 1e-05 s⁻¹ | < 1e-05 s⁻¹ | < 1e-05 s⁻¹ | –
C8G G9A A39U U47G C68U | < 1e-05 s⁻¹ | – | – | – | –
C8U G38U U49G C50A C68G | 0.00105 ± 0.00026 s⁻¹ | – | – | 0.000545 ± 0.00014 s⁻¹ | –
G9A C58G U65C | < 1e-05 s⁻¹ | – | < 1e-05 s⁻¹ | – | < 1e-05 s⁻¹
C8G G38C C50A G66U | < 1e-05 s⁻¹ | < 1e-05 s⁻¹ | < 1e-05 s⁻¹ | – | < 1e-05 s⁻¹
G9A C10A G32A | < 1e-05 s⁻¹ | – | – | – | –
C10A G43C | < 1e-05 s⁻¹ | < 1e-05 s⁻¹ | < 1e-05 s⁻¹ | < 1e-05 s⁻¹ | –
G9U U69C | < 1e-05 s⁻¹ | – | – | – | < 1e-05 s⁻¹
C10A C11G | < 1e-05 s⁻¹ | < 1e-05 s⁻¹ | < 1e-05 s⁻¹ | – | –
C8G U57G C70G | 0.0017 ± 0.00055 s⁻¹ | – | – | – | –
C8G G43U U65A C71G | < 1e-05 s⁻¹ | – | < 1e-05 s⁻¹ | < 1e-05 s⁻¹ | < 1e-05 s⁻¹
C8U G43U G44U C71A | < 1e-05 s⁻¹ | – | < 1e-05 s⁻¹ | – | –
G9C C11G G40A | < 1e-05 s⁻¹ | – | – | < 1e-05 s⁻¹ | –
C8G C10U | < 1e-05 s⁻¹ | – | – | < 1e-05 s⁻¹ | –
C8G C34U A42U | < 1e-05 s⁻¹ | – | – | – | –
C8G U30A | < 1e-05 s⁻¹ | < 1e-05 s⁻¹ | < 1e-05 s⁻¹ | < 1e-05 s⁻¹ | –
C8U G9A A15C A36G U49C U57G | < 1e-05 s⁻¹ | – | – | – | –
C8U C11U C58A C67G | 0.00018 ± 3.1e-05 s⁻¹ | – | 0.00126 ± 0.00052 s⁻¹ | 0.000209 ± 5.4e-05 s⁻¹ | 0.000112 ± 4.5e-05 s⁻¹
C8U U55A C58A | < 1e-05 s⁻¹ | – | < 1e-05 s⁻¹ | < 1e-05 s⁻¹ | –
G9C U54A U56G G66A | < 1e-05 s⁻¹ | – | – | – | –
